Results from patent US20240029819A1, “AGENTS BINDING MODIFIED ANTIGEN PRESENTED PEPTIDES AND USE OF SAME” (Yeda Research and Development Co. Ltd., priority 2020, published 2024).
“Also recorded” adds a separate entry of the source. Where no end group is shown, it is not given here. [ ]: non-standard residue; d: D form. N(d) = deamidated Asn

Target: HLA-A0201 (Homo sapiens, UniProt P04439, D140Y/D185E/D98H/E176V/E277Q/G131W/G231S/I119V/I121R/I166T/I218V/L300P/L318F/N151K/N90K/P208A/P217A/Q86G/Q94H/R138H/R169H/T345S)
Assay: ProImmune Module 2 REVEAL in-vitro MHC-peptide binding assay
Details: synthesized modified peptides and unmodified counterparts; score relative to positive control peptide; FIG. 4F
Protocol: ProImmune binding assay—ProImmune (www(dot)proimmune(dot)com) Module 2 REVEAL Binding Assay measure the yield of correctly conformed MHC-peptide complex following incubation of the recombinant MHC allele and peptide of interest using a conformational-dependent antibody in an immunoassay. Each peptide is given a score relative to the positive control peptide, which is a known T cell epitope.
To validate that the modified peptides identified with PROMISE are able to bind to HLA, the subset of modified peptides that were identified in immunopeptidomics of an HLA-A0201 cell line and that were not identified in IEDB in their unmodified form were filtered (FIG. 4D). Further, whether the difference in the detection of the modified peptides and their unmodified counterparts was due to their relative ability to bind HLA-A0201 was examined. […] Methylation of K-6 removes its positive charge and thereby alleviates electrostatic repulsion. In addition, the methyl group is nicely packed into the hydrophobic MHC groove. […] To assess the role of peptide modification in altering MHC binding 6 modified peptides and their unmodified counterparts were synthesized and their binding was examined using a binding assay (ProImmune). In these setting 4 of the synthesized modified peptides were confirmed as HLA binders.

Substance | binding to HLA-A0201 of the modified peptide compared with its matching unmodified form
K(me)VMDEVAGI (KVMDEVAGI; not fully specified (residue 1); printed as K(me)VMDEVAGI) | bind the HLA-A0201 more strongly than the unmodified form
TLE(me)NCLLPD(me) (TLENCLLPD; not fully specified (residues 3, 9); printed as TLE(me)NCLLPD(me)) | bound the MHC only in its modified form
TLN(d)SLIYTL (TL[N(d)]SLIYTL) | bind more strongly in its unmodified form
TLIESK(me)LPV (TLIESKLPV; not fully specified (residue 6); printed as TLIESK(me)LPV) | bind more strongly in its modified form; also recorded: bind the HLA-A0201 more strongly than the unmodified form
